{
  "source": "patent CN106117361A",
  "about": "(UNIV SUN YAT SEN, dated 2016)",
  "binders": {"B1": {"name": "A30322 抗CD3单域抗体 (sdAb) (VHH)", "VHH": "EVQLVECGGGLVQAGGSLRLSCAASGRTFDTMGWFRQAPGKEREFVAAVRWSSGNTYYGNTVKGRFTISRDTATNTVYLEMNSLKHEDTAVYYCAARLAGRGAADHWGQGTQVTVSS", "notes": "Llama-derived sdAb; Tested as crude sdAb-SASA protein in E. coli expression medium / culture supernatant (FASEBA format), not purified; also called sdAb-SASA蛋白; not shown: SASA fusion partner from the pFASEBA vector (sdAb-SASA protein in expression medium)"}},
  "target": "T1, CD3-His蛋白(MP-5)",
  "T1 construct": "Immunogen and panning antigen; also called CD3蛋白",
  "assay": "BLI (Octet RED96) off-rate screening, sdAb-SASA from expression medium captured on BSA-coated biosensor, CD3 at 100 nM in solution, 30°C, 1:1 Langmuir model",
  "data": [
    {"binder": "B1", "values": [
      {"measurement": "koff", "value": "1.43e-05", "unit": "s⁻¹"}
    ]}
  ]
}
